The values below are quoted from earlier work in PMC10636758.

pKd: −log10 of the molar value. Where only a bound is given, the exact number is not on record here.

One data set deals with HP1α (Homo sapiens) (UniProt P45973).
The target in data set [1] is Histone H3 peptide (Homo sapiens).

As a reminder, the pKd is the negative decadic logarithm of the Kd, by convention in mol/L. HP1α (from UniProt P45973): the pKd with HP1α (Homo sapiens) was more than 6.00.

On to HP1α CSD (from UniProt P45973), for which, in data set [1], the pKd was 4.24.
